Results reported in IntAct's records for PubMed 20927106.

B1: Coronatine-insensitive protein 1 (Arabidopsis thaliana (Mouse-ear cress)), O04197 (parent)
chain: MEDPDIKRCKLSCVATVDDVIEQVMTYITDPKDRDSASLVCRRWFKIDSETREHVTMALCYTATPDRLSRRFPNLRSLKLKGKPRAAMFNLIPENWGGYVTPWVTEISNNLRQLKSVHFRRMIVSDLDLDRLAKARADDLETLKLDKCSGFTTDGLLSIVTHCRKIKTLLMEESSFSEKDGKWLHELAQHNTSLEVLNFYMTEFAKISPKDLETIARNCRSLVSVKVGDFEILELVGFFKAAANLEEFCGGSLNEDIGMPEKYMNLVFPRKLCRLGLSYMGPNEMPILFPFAAQIRKLDLLYALLETEDHCTLIQKCPNLEVLETRNVIGDRGLEVLAQYCKQLKRLRIERGADEQGMEDEEGLVSQRGLIALAQGCQELEYMAVYVSDITNESLESIGTYLKNLCDFRLVLLDREERITDLPLDNGVRSLLIGCKKLRRFAFYLRQGGLTDLGLSYIGQYSPNVRWMLLGYVGESDEGLMEFSRGCPNLQKLEMRGCCFSERAIAAAVTKLPSLRYLWVQGYRASMTGQDLMQMARPYWNIELIPSRRVPEVNQQGEIREMEHPAHILAYYSLAGQRTDCPTTVRVLKEPI
partner: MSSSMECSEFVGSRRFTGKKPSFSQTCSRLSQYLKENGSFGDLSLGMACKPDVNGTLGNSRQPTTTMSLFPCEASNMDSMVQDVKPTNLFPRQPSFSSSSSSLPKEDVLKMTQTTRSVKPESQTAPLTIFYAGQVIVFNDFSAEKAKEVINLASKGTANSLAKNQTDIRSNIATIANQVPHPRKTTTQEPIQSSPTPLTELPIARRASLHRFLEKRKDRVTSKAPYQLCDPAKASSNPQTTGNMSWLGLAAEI

Variants of: B1
Settings: with ti10a_arath TIFY10A

Effect of a mutation on the interaction, disrupting interaction:
R409A
Y302A
F89A
R121A
R496A
Y386A
L301A
R351A
L469A
Y444A
M88A
R326A
R348A
R85A
